“And” between values parts separate entries of the source, which are not always exact repeats. Identical values can stand only once.
T1: recombinant Fc-tagged human LAG-3 (R&D Systems, 2319-L3-050) (human, UniProt P18627 23-450)
T1 construct: Bought protein; also called LAG-3 Fc; human LAG-3-Fc; not shown: Fc tag of the bought fusion protein
T1 sequence: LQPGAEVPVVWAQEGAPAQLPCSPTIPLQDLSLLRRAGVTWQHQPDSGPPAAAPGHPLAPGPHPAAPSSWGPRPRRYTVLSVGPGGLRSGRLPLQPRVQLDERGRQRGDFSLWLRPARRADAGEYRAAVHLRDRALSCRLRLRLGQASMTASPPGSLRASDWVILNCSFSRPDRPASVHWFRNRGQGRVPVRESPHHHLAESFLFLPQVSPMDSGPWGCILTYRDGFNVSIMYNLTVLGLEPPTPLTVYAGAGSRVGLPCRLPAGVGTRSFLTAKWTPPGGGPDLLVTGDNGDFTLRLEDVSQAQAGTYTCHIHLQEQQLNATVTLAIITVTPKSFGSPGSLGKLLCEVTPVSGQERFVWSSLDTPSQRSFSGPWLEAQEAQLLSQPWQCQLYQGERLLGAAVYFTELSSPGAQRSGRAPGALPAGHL


How the values were obtained:
[1] = target: T2, human PD-L1 Fc (R&D Systems, 156-B7) (human, UniProt Q9NZQ7 19-239); assay: SPR, BIAcore T200; mAb2 captured on Protein L, PD-L1 Fc injected
T2 construct: Bought protein; not shown: Fc tag of the bought fusion protein
Protocol: (§1) Protein L (Thermo, 21189) was immobilized on flow cells 1 and 2 of a Series S CM5 chip (GE Healthcare, BR-1005-30) by amine coupling (GE Healthcare, BR-1000-50) to a surface density of 2000 RU by following the manufacturer's instructions for the BIAcore T200 instrument. […] The association time was 3 min and the dissociation time was 6 min. Running buffer was HBS-P (GE Healthcare, BR-1003-68). Both flow cells were regenerated by injecting 10 mM sodium hydroxide (NaOH) at a flow rate of 100 μl/min for 20 seconds. The data were analysed by double referencing against the blank flow cell.
(§2) The binding kinetics were fit with a 1:1 Langmuir model to generate binding association (kₐ) and dissociation (kd) rates. Equilibrium binding constants (KD) were calculated by dividing the dissociation rate by the association rate for each sample. Data analysis was performed with BiaEvaluation software version 3.2.

[2] = target: T1, recombinant Fc-tagged human LAG-3 (R&D …); assay: SPR, BIAcore T200; mAb2 captured on Protein L, human LAG-3 Fc injected
Protocol: as §1, §2

[3] = target: T3, human PD-L1 expressed on cells (human, UniProt Q9NZQ7 19-290); assay: cell-based or functional assay
[4] = target: T4, cynomolgus PD-L1 expressed on cells (cynomolgus monkey, UniProt Q9NZQ7 19-290 (human entry)); assay: flow cytometry on HEK cells expressing cynomolgus PD-L1
T4 construct: also called cPD-L1; cyno PD-L1
Protocol: (§3) HEK cells expressing human or cynomolgus PD-L1 grown in DMEM (Life Technologies, 61965-026) containing 10% FBS (Life Technologies, 10270-1-6), 100 μg/ml Hygromycin B (Melford Laboratories Ltd, Z2475), 15 μg/ml Blasticidin (Melford Laboratories Ltd, B1105) and 1 μg/ml Doxycyclin (Sigma, D9891) were detached from tissue culture flasks using cell dissociation buffer (Life Technologies, 13151-014) and seeded in V-bottom 96-well plates (Costar, 3897) at 2×10⁵ cells/well. The plates were centrifuged at 1500 rpm for 3 min at 4° C. to pellet the cells. A dilution series of the mAb² (or control mAb) was incubated with the cells in a 100 μl volume for 1 h at 4° C. The plates were washed and secondary antibody (Anti-human Fc-488, Jackson ImmunoResearch, 109-546-098) was diluted 1:1000 in PBS and 100 μl was added to the cells for 30 min at 4° C. (plates were kept in the dark). The plates were washed then cells were resuspended in 100 μl PBS containing 1 μg/ml DAPI (Biotium, 40043). The plates were read using Canto II flow cytometer (BD Bioscience). Dead cells were excluded and the fluorescence in the FITC channel (488 nm/530/30) was measured. The data was fit using log (agonist) vs response in GraphPad Prism Software. The plates were read on a BD FACSCanto II cytometer (BD Biosciences) and the data analysed using FlowJo.

[5] = target: T3, human PD-L1 expressed on cells; assay: flow cytometry on HEK cells expressing human PD-L1
Protocol: as §3

T4 sequence (Q9NZQ7 other isoform, or with tags, fused parts or gaps limits assumed): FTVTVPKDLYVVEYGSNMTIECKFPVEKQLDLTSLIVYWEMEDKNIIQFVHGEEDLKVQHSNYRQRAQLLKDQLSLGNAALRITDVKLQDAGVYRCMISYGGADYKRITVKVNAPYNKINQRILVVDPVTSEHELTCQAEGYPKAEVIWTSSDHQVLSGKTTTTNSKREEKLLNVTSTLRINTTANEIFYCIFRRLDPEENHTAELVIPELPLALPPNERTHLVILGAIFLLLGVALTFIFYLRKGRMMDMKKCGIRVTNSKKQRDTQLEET
T3 sequence (Q9NZQ7 19-290 limits assumed): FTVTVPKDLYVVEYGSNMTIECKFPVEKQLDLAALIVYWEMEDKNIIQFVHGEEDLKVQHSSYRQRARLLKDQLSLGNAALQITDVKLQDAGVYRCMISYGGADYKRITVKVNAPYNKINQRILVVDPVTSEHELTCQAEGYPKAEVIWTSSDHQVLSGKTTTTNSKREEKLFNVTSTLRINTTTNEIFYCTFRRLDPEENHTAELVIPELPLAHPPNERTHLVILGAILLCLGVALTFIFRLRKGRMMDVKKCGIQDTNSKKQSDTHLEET
T2 sequence (Q9NZQ7 19-239 limits assumed): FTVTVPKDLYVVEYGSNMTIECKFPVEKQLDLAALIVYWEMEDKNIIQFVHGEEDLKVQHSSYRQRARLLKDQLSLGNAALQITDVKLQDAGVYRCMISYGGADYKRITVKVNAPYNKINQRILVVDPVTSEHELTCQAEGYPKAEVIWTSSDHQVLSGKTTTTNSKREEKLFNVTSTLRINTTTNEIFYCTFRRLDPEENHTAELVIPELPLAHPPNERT

| Kd [1] [nM] | koff [1] [s⁻¹] | kon [1] [M⁻¹ s⁻¹] | Kd [2] [nM] | koff [2] [s⁻¹] | kon [2] [M⁻¹ s⁻¹] | Maximal IL2 release calculated as % ctrl (84G09 + 25F7) [3] [%] | EC50 [4] | EC50 [5] | Binder |
| --- | --- | --- | --- | --- | --- | --- | --- | --- | --- |
| 1 | 0.00032 | 340000 | 0.049 | 0.00028 | 5.6e+06 | 82.9 | 1.98 nM | 3.82 nM | anti-human LAG-3/PD-L1 mAb2 FS18-7-32/84G09 with LALA mutation (bispecific antibody, human IgG1, kappa, L234A L235A, also called FS18-7-32/84G09LALA; F518-7-32/84G09LALA) heavy: EVQLVESGGGLVQPGRSLRLSCAASGFTFDDYAMHWVRQTPGKGLEWVSGISWKSNIIGYADSVKGRFTISRDNAKNSLYLQMNSLRAEDTALYYCARDITGSGSYGWFDPWGQGTLVTVSSASTKGPSVFPLAPSSKSTSGGTAALGCLVKDYFPEPVTVSWNSGALTSGVHTFPAVLQSSGLYSLSSVVTVPSSSLGTQTYICNVNHKPSNTKVDKKVEPKSCDKTHTCPPCPAPEAAGGPSVFLFPPKPKDTLMISRTPEVTCVVVDVSHEDPEVKFNWYVDGVEVHNAKTKPREEQYNSTYRVVSVLTVLHQDWLNGKEYKCKVSNKALPAPIEKTISKAKGQPREPQVYTLPPSWDEPWGEDVSLTCLVKGFYPSEIAVEWESNGQPENNYKTTPPVLDSDGSFFLYSKLTVPYDRWVWPDEFSCSVMHEALHNHYTQKSLSLSPG light: DIQMTQSPSSLSASVGDRVTITCRASQSISSYLNWYQQKPGKAPKPLIYVASSLQSGVPSSFSGSGSGTDFTLTISSLQPEDFATYYCQQSYSNPITFGQGTRLEIKRTVAAPSVFIFPPSDEQLKSGTASVVCLLNNFYPREAKVQWKVDNALQSGNSQESVTEQDSKDSTYSLSSTLTLSKADYEKHKVYACEVTHQGLSSPVTKSFNRGEC |
| – | – | – | – | – | – | 79.8 | – | – | anti-human LAG-3/PD-L1 mAb2 FS18-7-95/84G09 with LALA mutation (bispecific antibody, human IgG1, kappa, L234A L235A) heavy: EVQLVESGGGLVQPGRSLRLSCAASGFTFDDYAMHWVRQTPGKGLEWVSGISWKSNIIGYADSVKGRFTISRDNAKNSLYLQMNSLRAEDTALYYCARDITGSGSYGWFDPWGQGTLVTVSSASTKGPSVFPLAPSSKSTSGGTAALGCLVKDYFPEPVTVSWNSGALTSGVHTFPAVLQSSGLYSLSSVVTVPSSSLGTQTYICNVNHKPSNTKVDKKVEPKSCDKTHTCPPCPAPEAAGGPSVFLFPPKPKDTLMISRTPEVTCVVVDVSHEDPEVKFNWYVDGVEVHNAKTKPREEQYNSTYRVVSVLTVLHQDWLNGKEYKCKVSNKALPAPIEKTISKAKGQPREPQVYTLPPSWDEPWGEDVSLTCLVKGFYPSDIAVEWESNGYQEDNYKTTPPVLDSDGSFFLYSKLTVPYDRWVWPDEFSCSVMHEALHNHYTQKSLSLSPG light: DIQMTQSPSSLSASVGDRVTITCRASQSISSYLNWYQQKPGKAPKPLIYVASSLQSGVPSSFSGSGSGTDFTLTISSLQPEDFATYYCQQSYSNPITFGQGTRLEIKRTVAAPSVFIFPPSDEQLKSGTASVVCLLNNFYPREAKVQWKVDNALQSGNSQESVTEQDSKDSTYSLSSTLTLSKADYEKHKVYACEVTHQGLSSPVTKSFNRGEC |
| – | – | – | – | – | – | – | 1.81 nM | 3.49 nM | anti-human LAG-3/PD-L1 mAb2 FS18-7-88/84G09 with LALA mutation (bispecific antibody, human IgG1, kappa, L234A L235A) heavy: EVQLVESGGGLVQPGRSLRLSCAASGFTFDDYAMHWVRQTPGKGLEWVSGISWKSNIIGYADSVKGRFTISRDNAKNSLYLQMNSLRAEDTALYYCARDITGSGSYGWFDPWGQGTLVTVSSASTKGPSVFPLAPSSKSTSGGTAALGCLVKDYFPEPVTVSWNSGALTSGVHTFPAVLQSSGLYSLSSVVTVPSSSLGTQTYICNVNHKPSNTKVDKKVEPKSCDKTHTCPPCPAPEAAGGPSVFLFPPKPKDTLMISRTPEVTCVVVDVSHEDPEVKFNWYVDGVEVHNAKTKPREEQYNSTYRVVSVLTVLHQDWLNGKEYKCKVSNKALPAPIEKTISKAKGQPREPQVYTLPPSWDEPWGEDVSLTCLVKGFYPSDIAVEWESNGVPELNVKTTPPVLDSDGSFFLYSKLTVPYDRWVWPDEFSCSVMHEALHNHYTQKSLSLSPG light: DIQMTQSPSSLSASVGDRVTITCRASQSISSYLNWYQQKPGKAPKPLIYVASSLQSGVPSSFSGSGSGTDFTLTISSLQPEDFATYYCQQSYSNPITFGQGTRLEIKRTVAAPSVFIFPPSDEQLKSGTASVVCLLNNFYPREAKVQWKVDNALQSGNSQESVTEQDSKDSTYSLSSTLTLSKADYEKHKVYACEVTHQGLSSPVTKSFNRGEC |
| 1.1 | 0.00042 | 370000 | 0.043 | 0.00018 | 4.2e+06 | 64 | 1.9 nM and 1.73 nM | 3.45 nM and 3.23 nM | anti-human LAG-3/PD-L1 mAb2 FS18-7-33/84G09 with LALA mutation (bispecific antibody, human IgG1, kappa, L234A L235A, also called FS18-7-33/84G09LALA; F518-7-33/84G09LALA) heavy: EVQLVESGGGLVQPGRSLRLSCAASGFTFDDYAMHWVRQTPGKGLEWVSGISWKSNIIGYADSVKGRFTISRDNAKNSLYLQMNSLRAEDTALYYCARDITGSGSYGWFDPWGQGTLVTVSSASTKGPSVFPLAPSSKSTSGGTAALGCLVKDYFPEPVTVSWNSGALTSGVHTFPAVLQSSGLYSLSSVVTVPSSSLGTQTYICNVNHKPSNTKVDKKVEPKSCDKTHTCPPCPAPEAAGGPSVFLFPPKPKDTLMISRTPEVTCVVVDVSHEDPEVKFNWYVDGVEVHNAKTKPREEQYNSTYRVVSVLTVLHQDWLNGKEYKCKVSNKALPAPIEKTISKAKGQPREPQVYTLPPSWDEPWGEDVSLTCLVKGFYPSDIAVEWESNGQPEDNYKTTPPVLDSDGSFFLYSKLTVPYDRWVWPDEFSCSVMHEALHNHYTQKSLSLSPG light: DIQMTQSPSSLSASVGDRVTITCRASQSISSYLNWYQQKPGKAPKPLIYVASSLQSGVPSSFSGSGSGTDFTLTISSLQPEDFATYYCQQSYSNPITFGQGTRLEIKRTVAAPSVFIFPPSDEQLKSGTASVVCLLNNFYPREAKVQWKVDNALQSGNSQESVTEQDSKDSTYSLSSTLTLSKADYEKHKVYACEVTHQGLSSPVTKSFNRGEC |
| – | – | – | – | – | – | – | 1.64 nM and 1.96 nM | 3.11 nM and 3.05 nM | anti-human PD-L1 mAb 84G09 (without LALA mutation) (antibody, human IgG1, kappa, Human IgG1; also called 84G09 (parental); parental anti-PD-L1 mAb) heavy: not shown light: DIQMTQSPSSLSASVGDRVTITCRASQSISSYLNWYQQKPGKAPKPLIYVASSLQSGVPSSFSGSGSGTDFTLTISSLQPEDFATYYCQQSYSNPITFGQGTRLEIKRTVAAPSVFIFPPSDEQLKSGTASVVCLLNNFYPREAKVQWKVDNALQSGNSQESVTEQDSKDSTYSLSSTLTLSKADYEKHKVYACEVTHQGLSSPVTKSFNRGEC |
| – | – | – | – | – | – | 79.4 | 1.86 nM and 2.03 nM | 3.77 nM and 3.91 nM | anti-human LAG-3/PD-L1 mAb2 FS18-7-58/84G09 with LALA mutation (bispecific antibody, human IgG1, kappa, L234A L235A, also called F518-7-58/84G09LALA) heavy: EVQLVESGGGLVQPGRSLRLSCAASGFTFDDYAMHWVRQTPGKGLEWVSGISWKSNIIGYADSVKGRFTISRDNAKNSLYLQMNSLRAEDTALYYCARDITGSGSYGWFDPWGQGTLVTVSSASTKGPSVFPLAPSSKSTSGGTAALGCLVKDYFPEPVTVSWNSGALTSGVHTFPAVLQSSGLYSLSSVVTVPSSSLGTQTYICNVNHKPSNTKVDKKVEPKSCDKTHTCPPCPAPEAAGGPSVFLFPPKPKDTLMISRTPEVTCVVVDVSHEDPEVKFNWYVDGVEVHNAKTKPREEQYNSTYRVVSVLTVLHQDWLNGKEYKCKVSNKALPAPIEKTISKAKGQPREPQVYTLPPSWDEPWGEDVSLTCLVKGFYPSDIAVEWESNGYPEIEFKTTPPVLDSDGSFFLYSKLTVPYDRWVWPDEFSCSVMHEALHNHYTQKSLSLSPG light: DIQMTQSPSSLSASVGDRVTITCRASQSISSYLNWYQQKPGKAPKPLIYVASSLQSGVPSSFSGSGSGTDFTLTISSLQPEDFATYYCQQSYSNPITFGQGTRLEIKRTVAAPSVFIFPPSDEQLKSGTASVVCLLNNFYPREAKVQWKVDNALQSGNSQESVTEQDSKDSTYSLSSTLTLSKADYEKHKVYACEVTHQGLSSPVTKSFNRGEC |
